Experimental data from publication PMC12446779, “Structural basis of transglucosylation in dextran dextrinase, a homolog of anomer-inverting GH15 glucoside hydrolases” (The Journal of Biological Chemistry, 2025).

Target: Gluconobacter oxydans dextran dextrinase Δ382C (Met1–Ser902) (Gluconobacter oxydans)
Experiment: SEC; gel filtration of purified Δ382C (Fig. S8); conditions not told in the text shown

- stoichiometry N: 2
Substance: Gluconobacter oxydans dextran dextrinase Δ382C (Met1–Ser902) (enzyme)
